Source: PMC9482650, “Quantitative fragmentomics allow affinity mapping of interactomes” (Nature Communications, 2022)

Assays:
Test in all cases: holdup assay
Set-up in all cases: key: below the threshold = too weak to quantify, mostly under pKd 3.1 to 4
NHERF4_1, Q86UT5-2 = molecular target: NHERF4_1, Q86UT5-2
DLG4_3, P78352 = molecular target: DLG4_3, P78352
DLG1_2, Q12959 = molecular target: DLG1_2, Q12959
GRASP, Q7Z6J2 = molecular target: GRASP, Q7Z6J2
GORASP2, Q9H8Y8 = molecular target: GORASP2, Q9H8Y8
GIPC2, Q8TF65 = molecular target: GIPC2, Q8TF65
Sequence of GIPC2, Q8TF65 (Q8TF65 112-203): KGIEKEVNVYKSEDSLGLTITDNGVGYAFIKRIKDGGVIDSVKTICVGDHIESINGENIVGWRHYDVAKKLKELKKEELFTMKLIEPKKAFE

NHERF3_4, Q5T2W1 = molecular target: T1, NHERF3_4, Q5T2W1
T1 sequence (Q5T2W1 373-468, limits assumed, looked up): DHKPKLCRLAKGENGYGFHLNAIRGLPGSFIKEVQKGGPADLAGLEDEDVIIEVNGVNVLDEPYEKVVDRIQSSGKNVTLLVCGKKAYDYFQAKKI

SNTA1, Q13424 = molecular target: T2, SNTA1, Q13424
T2 sequence (Q13424 82-180, limits assumed, looked up): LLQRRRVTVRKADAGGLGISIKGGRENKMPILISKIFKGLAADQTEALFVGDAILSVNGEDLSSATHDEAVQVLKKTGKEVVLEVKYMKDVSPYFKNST

MAST2, Q6P0Q8 = molecular target: MAST2, Q6P0Q8
Sequence of MAST2, Q6P0Q8 (Q6P0Q8 1099-1202): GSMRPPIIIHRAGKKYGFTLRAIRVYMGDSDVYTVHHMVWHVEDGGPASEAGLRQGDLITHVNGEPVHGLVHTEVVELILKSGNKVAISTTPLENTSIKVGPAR

NOS1, P29475 = molecular target: NOS1, P29475
Sequence of NOS1, P29475 (P29475 9-101): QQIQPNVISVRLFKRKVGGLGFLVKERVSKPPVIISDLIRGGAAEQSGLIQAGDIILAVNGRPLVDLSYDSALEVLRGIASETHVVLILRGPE

FRMPD2_1, Q68DX3 = molecular target: FRMPD2_1, Q68DX3
Sequence of FRMPD2_1, Q68DX3 (Q68DX3 770-861): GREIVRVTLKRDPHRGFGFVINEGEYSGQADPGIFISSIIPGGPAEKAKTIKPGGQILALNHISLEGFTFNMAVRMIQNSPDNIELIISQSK

Inadl_9, Q8NI35 = molecular target: Inadl_9, Q8NI35
Sequence of Inadl_9, Q8NI35 (Q8NI35 1530-1615): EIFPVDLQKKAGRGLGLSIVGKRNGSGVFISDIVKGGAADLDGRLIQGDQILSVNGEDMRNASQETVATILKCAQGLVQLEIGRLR

MAGI2_6, Q86UL8 = molecular target: MAGI2_6, Q86UL8
Sequence of MAGI2_6, Q86UL8 (Q86UL8 1141-1229): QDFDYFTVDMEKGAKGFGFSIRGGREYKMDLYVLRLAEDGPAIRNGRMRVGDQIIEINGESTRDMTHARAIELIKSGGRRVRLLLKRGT

APBA3_1, O96018 = molecular target: T3, APBA3_1, O96018
T3 sequence (O96018 389-490, limits assumed, looked up): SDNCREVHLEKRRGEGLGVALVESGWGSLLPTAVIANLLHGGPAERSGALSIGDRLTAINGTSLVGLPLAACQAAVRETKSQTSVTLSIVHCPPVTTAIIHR

PTPN3, P26045 = molecular target: PTPN3, P26045
Sequence of PTPN3, P26045 (P26045 505-587): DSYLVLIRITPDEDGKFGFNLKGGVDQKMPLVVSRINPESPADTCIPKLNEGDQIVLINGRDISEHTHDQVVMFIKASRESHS

MAGI2_3, Q86UL8 = molecular target: MAGI2_3, Q86UL8
Sequence of MAGI2_3, Q86UL8 (Q86UL8 600-682): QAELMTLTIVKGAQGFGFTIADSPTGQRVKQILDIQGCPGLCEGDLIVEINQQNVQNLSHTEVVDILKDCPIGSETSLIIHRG

APBA1_2, Q02410 = molecular target: T4, APBA1_2, Q02410
T4 sequence (Q02410 742-832, limits assumed, looked up): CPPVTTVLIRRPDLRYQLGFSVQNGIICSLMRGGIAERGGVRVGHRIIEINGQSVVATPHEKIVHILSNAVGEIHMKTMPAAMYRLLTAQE

LNX2_3, Q8N448 = molecular target: T5, LNX2_3, Q8N448
T5 sequence (Q8N448 463-564, limits assumed, looked up): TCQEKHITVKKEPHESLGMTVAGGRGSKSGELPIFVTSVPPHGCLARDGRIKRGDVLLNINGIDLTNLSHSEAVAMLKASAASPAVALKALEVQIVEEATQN

SCRIB_3, Q14160 = molecular target: SCRIB_3, Q14160
Sequence of SCRIB_3, Q14160 (Q14160 999-1103): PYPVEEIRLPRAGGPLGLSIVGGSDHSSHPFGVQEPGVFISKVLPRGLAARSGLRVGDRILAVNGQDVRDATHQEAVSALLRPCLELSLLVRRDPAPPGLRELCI

RHPN1, Q8TCX5 = molecular target: T6, RHPN1, Q8TCX5
T6 sequence (Q8TCX5 508-602, limits assumed, looked up): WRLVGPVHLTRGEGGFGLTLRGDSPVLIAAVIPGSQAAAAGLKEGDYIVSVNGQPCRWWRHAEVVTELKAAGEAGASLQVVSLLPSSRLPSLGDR

Inadl_8, Q8NI35 = molecular target: Inadl_8, Q8NI35
Sequence of Inadl_8, Q8NI35 (Q8NI35 1425-1530): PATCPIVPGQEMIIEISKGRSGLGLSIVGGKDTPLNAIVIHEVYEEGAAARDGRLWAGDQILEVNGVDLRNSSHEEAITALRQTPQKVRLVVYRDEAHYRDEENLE

MPDZ_12, O75970 = molecular target: T7, MPDZ_12, O75970
T7 sequence (O75970 1857-1958, limits assumed, looked up): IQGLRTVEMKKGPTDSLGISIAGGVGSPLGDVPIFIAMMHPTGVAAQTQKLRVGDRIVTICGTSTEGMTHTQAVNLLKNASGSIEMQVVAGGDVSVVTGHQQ

HTRA4, P83105 = molecular target: T8, HTRA4, P83105
T8 sequence (P83105 378-476, limits assumed, looked up): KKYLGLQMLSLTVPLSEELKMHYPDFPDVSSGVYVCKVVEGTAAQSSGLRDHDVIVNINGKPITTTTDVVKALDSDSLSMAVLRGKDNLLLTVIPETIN

AHNAK1, Q09666 = molecular target: AHNAK1, Q09666
Sequence of AHNAK1, Q09666 (Q09666 4-100): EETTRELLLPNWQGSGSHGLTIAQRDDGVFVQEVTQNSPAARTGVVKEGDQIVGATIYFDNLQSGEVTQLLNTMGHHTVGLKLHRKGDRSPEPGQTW

LIN7C, Q9NUP9 = molecular target: T9, LIN7C, Q9NUP9
T9 sequence (Q9NUP9 88-185, limits assumed, looked up): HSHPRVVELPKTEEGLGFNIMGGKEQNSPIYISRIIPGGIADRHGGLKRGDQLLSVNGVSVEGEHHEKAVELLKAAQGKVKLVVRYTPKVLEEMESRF

MPDZ_10, O75970 = molecular target: T10, MPDZ_10, O75970
T10 sequence (O75970 1624-1722, limits assumed, looked up): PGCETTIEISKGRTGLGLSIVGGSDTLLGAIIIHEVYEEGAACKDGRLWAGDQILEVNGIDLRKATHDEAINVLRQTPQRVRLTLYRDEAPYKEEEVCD

RADIL, Q96JH8 = molecular target: T11, RADIL, Q96JH8
T11 sequence (Q96JH8 971-1071, limits assumed, looked up): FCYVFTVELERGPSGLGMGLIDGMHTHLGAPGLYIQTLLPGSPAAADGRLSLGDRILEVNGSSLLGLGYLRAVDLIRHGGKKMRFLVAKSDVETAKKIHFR

[1] = plain residues with an end cap or a label only (N-terminal biotin on a linker: ttds)
[2] = plain residues with an end cap or a label only (N-terminal biotin on a linker: gsgsgs; C-terminal amide)

Sequence of DLG4_3, P78352 (P78352 306-403): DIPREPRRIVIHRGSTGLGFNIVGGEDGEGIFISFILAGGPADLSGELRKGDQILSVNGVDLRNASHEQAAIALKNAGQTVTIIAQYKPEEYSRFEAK
Sequence of NHERF4_1, Q86UT5-2 (Q86UT5 other isoform, or with tags, fused parts or gaps): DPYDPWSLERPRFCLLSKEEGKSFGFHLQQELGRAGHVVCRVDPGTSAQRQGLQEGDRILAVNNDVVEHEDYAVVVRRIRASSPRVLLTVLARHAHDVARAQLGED
Sequence of DLG1_2, Q12959 (Q12959 314-412): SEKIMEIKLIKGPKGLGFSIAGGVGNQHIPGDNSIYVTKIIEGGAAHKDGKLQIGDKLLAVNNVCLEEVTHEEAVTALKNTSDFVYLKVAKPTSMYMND
Sequence of GRASP, Q7Z6J2 (Q7Z6J2 96-193): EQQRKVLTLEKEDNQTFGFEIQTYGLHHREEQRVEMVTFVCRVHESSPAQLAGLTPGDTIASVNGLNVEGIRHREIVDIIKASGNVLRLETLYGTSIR

## IYVPEAQTRL [DLGAP4, Q9Y2H0]
NHERF4_1, Q86UT5-2; [1]
  pKd: 3.65
DLG4_3, P78352; [1]
  pKd: below the threshold
DLG1_2, Q12959; [1]
  pKd: below the threshold
GRASP, Q7Z6J2; [1]
  pKd: 4.2
GORASP2, Q9H8Y8; [1]
  pKd: below the threshold
GIPC2, Q8TF65; [1]
  pKd: below the threshold
NHERF3_4, Q5T2W1; [1]
  pKd: 3.87
SNTA1, Q13424; [1]
  pKd: 3.98
MAST2, Q6P0Q8; [1]
  pKd: 6.16
NOS1, P29475; [1]
  pKd: 3.76
FRMPD2_1, Q68DX3; [1]
  pKd: below the threshold
Inadl_9, Q8NI35; [1]
  pKd: below the threshold
MAGI2_6, Q86UL8; [1]
  pKd: below the threshold
APBA3_1, O96018; [1]
  pKd: below the threshold
PTPN3, P26045; [1]
  pKd: 4.38
MAGI2_3, Q86UL8; [1]
  pKd: below the threshold
APBA1_2, Q02410; [1]
  pKd: 3.64
LNX2_3, Q8N448; [1]
  pKd: below the threshold
SCRIB_3, Q14160; [1]
  pKd: 3.98
RHPN1, Q8TCX5; [1]
  pKd: 4.42
Inadl_8, Q8NI35; [1]
  pKd: below the threshold
MPDZ_12, O75970; [1]
  pKd: below the threshold
HTRA4, P83105; [1]
  pKd: below the threshold
AHNAK1, Q09666; [1]
  pKd: below the threshold
LIN7C, Q9NUP9; [1]
  pKd: below the threshold
MPDZ_10, O75970; [1]
  pKd: below the threshold
RADIL, Q96JH8; [1]
  pKd: below the threshold

## SSRTRRETQL [HPV16-E6, P03126]
NHERF4_1, Q86UT5-2; [1]
  pKd: 4.25
DLG4_3, P78352; [1]
  pKd: 5.06
DLG1_2, Q12959; [1]
  pKd: 5.06
GRASP, Q7Z6J2; [1]
  pKd: below the threshold
GORASP2, Q9H8Y8; [1]
  pKd: 4.02
GIPC2, Q8TF65; [1]
  pKd: below the threshold
NHERF3_4, Q5T2W1; [1]
  pKd: 3.89
SNTA1, Q13424; [1]
  pKd: 4.75
MAST2, Q6P0Q8; [1]
  pKd: 5.66
NOS1, P29475; [1]
  pKd: 4.08
FRMPD2_1, Q68DX3; [1]
  pKd: 4.12
Inadl_9, Q8NI35; [1]
  pKd: below the threshold
MAGI2_6, Q86UL8; [1]
  pKd: 3.61
APBA3_1, O96018; [1]
  pKd: below the threshold
PTPN3, P26045; [1]
  pKd: 5.06
MAGI2_3, Q86UL8; [1]
  pKd: 3.67
APBA1_2, Q02410; [1]
  pKd: below the threshold
LNX2_3, Q8N448; [1]
  pKd: below the threshold
SCRIB_3, Q14160; [1]
  pKd: 5.29
RHPN1, Q8TCX5; [1]
  pKd: 4.23
Inadl_8, Q8NI35; [1]
  pKd: below the threshold
MPDZ_12, O75970; [1]
  pKd: below the threshold
HTRA4, P83105; [1]
  pKd: below the threshold
AHNAK1, Q09666; [1]
  pKd: below the threshold
LIN7C, Q9NUP9; [1]
  pKd: 4.04
MPDZ_10, O75970; [1]
  pKd: 3.68
RADIL, Q96JH8; [1]
  pKd: 3.65

## TLSLTDSSVDGIPPYR [AXIN1_int, O15169]
NHERF4_1, Q86UT5-2; [2]
  pKd: below the threshold
DLG4_3, P78352; [2]
  pKd: below the threshold
DLG1_2, Q12959; [2]
  pKd: below the threshold
GRASP, Q7Z6J2; [2]
  pKd: below the threshold
GORASP2, Q9H8Y8; [2]
  pKd: below the threshold
GIPC2, Q8TF65; [2]
  pKd: below the threshold
NHERF3_4, Q5T2W1; [2]
  pKd: below the threshold
SNTA1, Q13424; [2]
  pKd: below the threshold
MAST2, Q6P0Q8; [2]
  pKd: below the threshold
NOS1, P29475; [2]
  pKd: below the threshold
FRMPD2_1, Q68DX3; [2]
  pKd: below the threshold
Inadl_9, Q8NI35; [2]
  pKd: below the threshold
MAGI2_6, Q86UL8; [2]
  pKd: below the threshold
APBA3_1, O96018; [2]
  pKd: below the threshold
PTPN3, P26045; [2]
  pKd: 3.83
MAGI2_3, Q86UL8; [2]
  pKd: below the threshold
APBA1_2, Q02410; [2]
  pKd: below the threshold
LNX2_3, Q8N448; [2]
  pKd: below the threshold
SCRIB_3, Q14160; [2]
  pKd: below the threshold
RHPN1, Q8TCX5; [2]
  pKd: below the threshold
Inadl_8, Q8NI35; [2]
  pKd: below the threshold
MPDZ_12, O75970; [2]
  pKd: 3.55
HTRA4, P83105; [2]
  pKd: below the threshold
AHNAK1, Q09666; [2]
  pKd: below the threshold
LIN7C, Q9NUP9; [2]
  pKd: 3.97
MPDZ_10, O75970; [2]
  pKd: below the threshold
RADIL, Q96JH8; [2]
  pKd: below the threshold
